# Source: the domain aggregation screens of Martell et al. (2025)
# Test: soluble fraction after stress (log2 fold change); higher = more stays soluble; pooled small domains, quantitative proteomics
# Details: stress: pH 4
# Outline: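 Small protein domains from pooled custom libraries were exposed to pH 4, then quantified with high-throughput quantitative proteomics. The fold change in how much of each domain remains soluble is read as aggregation propensity. It is given as log2, with higher values meaning more stayed soluble.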
sequence,measurement,value
HMLKNKSTGNINETKAILELALNHSHFKVFDNRDMTVTFKNLATQFTTMQRILVQMFFPLPAGVELIIE,soluble fraction (log2),0.268
HMDLKSLEFAIVENVQRHDLNPLEEAQGYKRLIDEFSYDQDKVSKFIGKSRSYITNSLRLLNLPLEVLEF,soluble fraction (log2),-0.541
HMIIYGLNPVKDFINLFPNKISTLFISKNKLSDSEMKSVVNINTVYVSDAELKRITGTTKHQSLAAEID,soluble fraction (log2),-0.721
HMLPYGDRRRHTDNTISRIRELAAALDDSGIADRLNQDGYVTPEGKPFTYAGVRWIRYKYDISGPYERN,soluble fraction (log2),-0.364
HMLKNYATPEQRAQLDMLKDKGIIGENELMQLGKYPSQDKASEVLENHADAVKMLDSDEISNRAEAIRSHD,soluble fraction (log2),0.22
HMKNSIKLDNFVGMSYDEVISNKEYDFNFVSAFEKTSDYEAGTIIGQTPAAEERVMVGTTVTLTVAQP,soluble fraction (log2),0.158
HMPQPDVIEVRQGIVTGMRPDRRTGWLRDEEDAAGEPKSFSIDVITPKGRTPGKGAVVTYTLTNGKITEVK,soluble fraction (log2),0.143
HMQQNYREMHKVKKGETLFGIARRYEITVDQLIKANPDMNAVGYELKKGDYIFIPYPDGQKP,soluble fraction (log2),-0.116
HMPDYYAILEVERTADAKTIKAAYRKLALAYHPDRNPGDQAAEERFKQINEAYAVLSDPEKRARYDRYGSV,soluble fraction (log2),0.139
HMYDRIKLLKLREKRGLTQYELAEKAGISVVTLNKIETSDMAKPFASTLKKIALALGVGIEELS,soluble fraction (log2),0.22
HMNSRQPEEEALFELLAKNPYSDEQLEEIRIAIGSGISYKDVLVIADIKNTAKQMKKLRLKFTKDTG,soluble fraction (log2),0.118
HMDAGLAEIIRSFEDNLGGFPPAAREDLLGWREIFTDDLILLAIKKAALAGVRKWSYVNGILKVWKNEGVR,soluble fraction (log2),-1.09
HMDQESFGYFHVKYADVKQVADLVQKLNIPAVTWADERTRRLVALGSPATLQRISQVLNMVDL,soluble fraction (log2),-0.476
HMEIFSIEPDSYLGSGEEIASYYREGVTVIVNMAKLSDAESLRMVDFMSGLKLALLGNIKRITKHVYLLTP,soluble fraction (log2),-0.966
HMQWQPSEEAMQRLEQHGIPRAFSFSQLDAFVLQGQEQGSNRNDWNTRFFRFIKNQWVYAQN,soluble fraction (log2),-1.17
HMKDTFHNLSEEKRERIIRAALGEFAASGYEKATLDGVVQAAGISKGGLYEYISSKEDLFRYLLEYSYD,soluble fraction (log2),-1.43
HMADMKIHLRPYAHDTNRWHVDIRLMHPTAATEIRKRLVAPAGLSEAQARAWGERQVPTILGKALGVI,soluble fraction (log2),-0.042
HMSDGTVYGSDGVIKVNLPQSGMLRIYATDGTTLVNRWQAAGIDTISMPRGLYIVRFDNQVWKVVV,soluble fraction (log2),0.00982
HMGIFAQTTKWRDIYTVKKKDTIFGIANKYGLSLPELMEANPEMKQEGYMLQKGTTLFIPFASD,soluble fraction (log2),-0.0354
HMGDLVFDFVHGVHKAAEVEKELVMQALRFTHGNVSRAARLIGMQRSSLRYRIERYRLDAFVMEVAN,soluble fraction (log2),-0.0309
HMSDRLRPGDMVVVVGKKKRYPVFSAFDIDFVEAGDVGKVLTVKREEVVVGFPKKGEGTFTPSELNIAH,soluble fraction (log2),0.00331
HMETYHIQMKGDPSKGIVGFSQLDMVIDKIKRLETEKGIAPYELEVLDGDTMEKYSGEEFLTMHE,soluble fraction (log2),-1.21
HMKQISNTDELEAMIQKIIEDNSQQVEKFRSGNEKLFGWFVGQVMKNTQGAANPKVVNEILKKSLK,soluble fraction (log2),0.181
HMNIILFLDELHRLLSDLPPEERNQAIKYYEDYFEDAGPENEQAILKELGSPQELANQIKATT,soluble fraction (log2),-1.36
HMFIEHSKYKLSFKYNQLGKISNVINSNNGIIMDKHFDQNITLLAKLTENTFQEIIKHFPTIIIKRL,soluble fraction (log2),-0.539
HMALENTDLYAHLRLSHTASVPEIQAALSARVKHMPLQTWLLARKWLLHPRLRERYDGMWSVRFGA,soluble fraction (log2),-0.136
HMKVNMIIVMKPGARETDIQEVSNVLKSAGLGVHISKGTERTIIGVIGDKRLLNGIPLDLMHGVDKLVPIM,soluble fraction (log2),-0.0619
HMSAPVFRITPAGVVVNGLKRSDILTLTRIDGAMNTLPHNAGEVLVSTEGLAKGVYVITAGGKSLKFLV,soluble fraction (log2),0.00157
HMGLAWTVEGRTVLLGRTADRIELYNVGGGLVALARESDRISAPGVGLYVVRVVSDGQSVSQKIWIT,soluble fraction (log2),-0.325
HMQQIQILPDGKIKLPDLSGTNMREAIEILHKGGLRMKPYGSGNAYQQKPAAGETVASGTTVEVLSL,soluble fraction (log2),0.0974
HMAFDDAHYKDMITSYLKKFKKGNRSEIENLIIPKLSEVLVEKQKKDKVKNLLQALRKDNQIRLKGKYWYL,soluble fraction (log2),0.196
HMTDDALIGKTAQVTVAIKPGSVGQITARVGDERVERLARASADAEIAAGSLVTIKSIAGDSVIVAPE,soluble fraction (log2),0.22
HMVSEASELTDTINKIGSLAQALVGANKLSKTDLVGIIKKYHTSANYNSITDIGVAKNILAELEAKN,soluble fraction (log2),-0.264
HMESRMTYLQKTKLATENLDAKLIDHQQWVAEVLGEDYRGVYSDEYLRRAAKVFAIFVNNLDD,soluble fraction (log2),-1.41
HMEEDPVISQAQRQALFKLAHDHFGQEEGNKVILRLIGEHGLRSTTNMTASVYKTVTDALIQVIESMVEG,soluble fraction (log2),-0.444
HMQSKSEINELPKSIHMAFSPKNFELFIDNLKINEIDFSNWKGELNTIQERVDGQRQIWIQDPQGYWIEIN,soluble fraction (log2),-0.335
HMPYIVNHIHLKSEDPKITADWFVKAFNFEIVSDVVRHFGDRFIVTKAEGGMTINISGVRDGEEL,soluble fraction (log2),0.262
HMGYQLSLEAQSQLKALGLTSEYITRILDEADNRQPIPGTSRTVYSLNGYQVEFSHSDQQVIRIARG,soluble fraction (log2),-0.262
HMDTSAHEVLSAIRSIIEDEDKRHPLSDEAITSRLSQQGYDIARRTVAKYRERLGLPVARLRRE,soluble fraction (log2),0.376
HMKLPNSFGSIQKLSGNRRKPYRVVKTIGWDENGKQIRKTLGYYETRAKALQELALFNEKPYD,soluble fraction (log2),0.22
HMSPSQFRSKSLLVEINFASRQMDGEILQGDYAGKRLSELTEAEVQELTAWLKQSDRESFVLLQAYLLRSG,soluble fraction (log2),-1.17
HMSRVHHGFNISIARNRKGLKQAALADMLGISQQRLSQLENQRVVKDEILEKVSEATGVSVEDLKTIE,soluble fraction (log2),0.171
HMFAKVEGITGDILDKLQQQRGFLALSDKSSPEAIYDTFGVSKKVFKQAIGTLFKQQKISIEAEGIRLV,soluble fraction (log2),-0.0102
HMGRTGTVVVSPSLNVRTGPWGEIIGSLYNGNKVEIIGSSGDWYQISFGGKTAYVHSDYVVDGG,soluble fraction (log2),-0.779
HMLYEDVQVPNVRYWKSRDAKKQLEDLGLRVLTEHVNDAYIQSDQVIRTSPEIGDTLRTGDTVTLYVSDG,soluble fraction (log2),0.146
HMDRQIQITVAENEAGQRLDAFLAAKIPDMSRSYIQKLIEDGLILVNGQSTKGKVKTYSGMNIEVYMPE,soluble fraction (log2),0.22
HMSQEAKLAMPVTDLRLSARTLNALELANIRTVRDLVSHTEEQLLELRNFGETALAEVKEKLAALGLRLGM,soluble fraction (log2),-0.436
HMGLAGVQSDVKVSFDGDLLVVTSDIARSFNLFAVDGRLIRSVNLIAGRNEIRGLERGFYLAEKQKIFV,soluble fraction (log2),-1.36
HMEEEVKVPKIKGLTEAEAKAKLKSEGLESGTARSAYSDTVEEGHIISQSIQEGTKVPKGTAVSYEVSKGK,soluble fraction (log2),0.22
HMSATVLVHVLGEVRKPGVVSLPEGSRVQDAITAAGGLTSRAKPGDLNLAARVSDGAQLVIGRSGSQVRTT,soluble fraction (log2),0.103
HMGAARVTPLYNLRLREGPSTATARLDVVPRGTTLEVRAWDETGDWAQVEYRGQIGWIAAWLAEVEGEAP,soluble fraction (log2),-0.739
HMKEIDVPNVVGASENAARKLLESYGFQVEVQWENGERVDNAVVKSYSPNGSAKSGSTVTIVLGT,soluble fraction (log2),-0.293
HMPYSPTPGSAPARLIAHLQEHGDSVNRTAIAELLQVDRKNVHNYLARAVTHGLLLRHGGGAYSLP,soluble fraction (log2),0.207
HMRNGGHTVYRNNGSLFIVVRDGDKLESVASEFRVSPKKLIKYNDLDIHSNVKTGDMIYIRPKA,soluble fraction (log2),-0.124
HMTEIILTARSGRHAVRHRLEGLGYTLTPEELERVHQRFLAVADAKKEVFDEDLHALMADERGT,soluble fraction (log2),-0.467
HMVTTADIILEFYSRNPNATLTQAAQHVARATGTTYSRQAISAQLKRLEVAGLVERNGHVTV,soluble fraction (log2),-0.47
HMSESIFTLYGDEKFEKIRYYLKERGFITLDALARFDFDELLFVPGVSELLISEAKQLFSRYDTSSLAAKE,soluble fraction (log2),-0.921
HMTANTQVENIRLELQRYMDEHGISQVTVARGIGKTHPVISQFLNNKYPGDVEEVARAIESWLTKQHEKAA,soluble fraction (log2),0.381
HMDTIVVAARSIQARQTLTESDLRVEEQEIGAASDKYYTDIAEAVGLVSSRRLSPGQPILRTM,soluble fraction (log2),-0.273
HMLGDAVLRQVLETIPEDPAVDYLELRRNTGMTEADLDRVLADLENLGVINKKRTVEQVLYWRT,soluble fraction (log2),-1.44
HMPPITIVPNDNGVPIIRSQTPEISTAVNVELKAAGINTHTIDGTSIRVPKAQAQVAQQIVSRVNTRFT,soluble fraction (log2),0.266
HMEPVFSDPARQTLYQEVMELPAKYRVPLYLYYYEGYKVDEVGELLGLNASTVQTRLARARAKLKIQL,soluble fraction (log2),-0.17
HMETYSGVERAAILVMYLERTLAKALLDHMNDEEVRRVGMAMASIDRVEGPDIERIVGDFVRELYEVS,soluble fraction (log2),-0.857
HMSEKIDINNSNELELKQLPLTNEQIKSLIEFRRLHGEIQNIYELKNIDFFNIEKVHELKAHIEIKKII,soluble fraction (log2),-1.05
HMLGNIERALEMLQEVAATMDPVDIRLLLSMAQVESVRGNTEAAVKLIDEALVIDPGNERIEQIRLRVL,soluble fraction (log2),-0.869
HMPGEIKKIPINSISYQDLKQHPYFDAYLAKQVIKYRETKGRIENIEQFREATRAYQSLIEKVTPYLDFE,soluble fraction (log2),-0.268
HMDMPLIGTAIRGWGIISPAQQETLIKMSILTVEDLAAINDEGIKRIGMGGLDLKNKAKAWLLQLK,soluble fraction (log2),-0.00985
HMKSVQIPQSITVKEFSQAIEVSVADVIKKLMSMGVMVSQNKEINVDTAILVGEEFGVTVNVA,soluble fraction (log2),-0.0481
HMPFREGDEVFVELVEPHMYNEDDAVAKLDGYVVAVRGAAGLVGQKVLVRIERVGRSSAEATLVA,soluble fraction (log2),-0.451
HMAPGIGDSKYFSHIYEMKHIDTIIDNDKGDRLIEHFEIQDTPFIFTKHWTSAFGFSKRQQEIITDYLSYF,soluble fraction (log2),-0.0653
HMPRENLAYTLIMDGIVQHKNLPRASVTEAWLKQELQKAGINDFRQVLIAGIDSKGQLYFQPKQK,soluble fraction (log2),-0.392
HMPYNNLADAPASWKKLDDTPLTLGQVNWIAKIYDALVAKGMEKGAAAGTAISRFKKSFKVADGKWVQV,soluble fraction (log2),0.173
HMGYDVAEVKFRLIKLLRDSKIGISGVEISERLGINRVTMTKYLNIFSAEGVIGEKNIGNVNLWFVYEGIE,soluble fraction (log2),-0.186
HMLKFPIGTHVGKKKPSANLSLPNKHGVVIGHGERRNAKGAIMRFYIVETTHSSRPEEWAPGITYPL,soluble fraction (log2),-0.275
HMISLPSYIREEATEVYNRLHDLGLEYTSLDVNDDSIPKGYVVRTVPEAGASVPAGQVVTVYVSLG,soluble fraction (log2),-0.231
